Values quoted from earlier work in article PMC13371949 (Journal of peptide science : an official publication of the …, 2025).

Experiments:
[1] = previous work

## glucagon [glucagon control]
[1]
  time to fibril formation in solution: ~ 11 hours
other
  isoelectric point: near neutral
pH 7
  solubility at pH 7: limited solubility
